# Data: patent US20060246543
# Target: T1, STAT4 immunoprecipitated with anti-STAT4 from ConA-activated thymocytes
# T1 sequence (P42228 1-749, species assumed, looked up): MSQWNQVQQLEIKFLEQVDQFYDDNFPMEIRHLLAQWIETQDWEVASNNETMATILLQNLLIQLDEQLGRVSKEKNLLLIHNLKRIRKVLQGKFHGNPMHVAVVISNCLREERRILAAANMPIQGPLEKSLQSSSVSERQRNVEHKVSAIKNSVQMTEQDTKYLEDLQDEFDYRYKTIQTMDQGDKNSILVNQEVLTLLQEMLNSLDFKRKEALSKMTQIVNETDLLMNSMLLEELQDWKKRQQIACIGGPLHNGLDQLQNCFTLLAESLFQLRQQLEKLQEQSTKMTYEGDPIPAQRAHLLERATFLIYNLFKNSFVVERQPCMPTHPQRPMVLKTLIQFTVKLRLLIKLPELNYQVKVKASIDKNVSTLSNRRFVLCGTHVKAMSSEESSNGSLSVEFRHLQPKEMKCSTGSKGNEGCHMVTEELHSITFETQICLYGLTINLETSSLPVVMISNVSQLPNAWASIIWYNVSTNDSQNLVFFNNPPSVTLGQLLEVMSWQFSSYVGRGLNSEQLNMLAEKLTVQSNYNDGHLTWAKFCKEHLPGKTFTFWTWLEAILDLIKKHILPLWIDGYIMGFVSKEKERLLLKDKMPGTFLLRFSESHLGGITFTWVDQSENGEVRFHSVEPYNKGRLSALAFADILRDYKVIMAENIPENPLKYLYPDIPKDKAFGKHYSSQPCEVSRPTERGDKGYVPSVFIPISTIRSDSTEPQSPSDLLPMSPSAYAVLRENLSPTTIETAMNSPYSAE
protein,measurement,value
recombinant SLIM (His-SLIM expressed in E. coli and purified on a Nickel column) (protein) MALTVDVAGPAPWGFRISGGRDFHTPIIVTKVTERGKAEAADLRPGDIIVAINGQSAENMLHAEAQSKIRQSASPLRLQLDRSQTASPGQTNGEGSLEVLATRFQGSLRTHRDSQSSQRSACFSPVSLSPRPCSPFSTPPPTSPVALSKEDMIGCSFQSLTHSPGLAAAHHLTYPGHPTSQQAGHSSPSDSAVRVLLHSPGRPSSPRFSLDLEEDSEVFKMLQENRQGRAAPRQSSSFRLLQEALEAEERGGTPAFVPSSLSSQASLPTSRALATPPKLHTCKKCSVNISNQAVRIQEGRYRHPGCYTCADCGLNLKMRGHFWVGNELYCEKHARQRYSMPGTLNSRA,"in vitro ubiquitination of STAT4 (biotin-ubiquitin, E1, UbcH5a; immunoblot anti-STAT4)",purified recombinant SLIM could mediate the in vitro ubiquitination of purified STAT4 which was immunoprecipitated from ConA-activated thymocytes
